Experimental data taken from patent US20240043507A1 (RQ BIOTECHNOLOGY, published 2024).

B1: antibody 88 (antibody, V domains shown)
VH: QLQLQESGPGLVKPSQTLSLTCTVSGGSISSGSYNWTWIRQPAGKGLEWIGRIYNSGSTNYNPSLKSRVTISVDTSKNQLSLKVRSVTAADTAVYYCARHCSGGTCYPKYYYGMDVWGQGTTVTVSS
VL: QSALTQPPSVSEAPRQRVTISCSGSSSNIGNNAVNWYQQFPGKAPKLLIYYDDLLPSGVSDRFSGSKSGTSASLAISGVQSEDEADYYCAAWDDSLNVVVFGGGTKLTVL
notes: also called mAb 88
B2: antibody 278 (antibody, V domains shown)
VH: QVQLVQSGAEVKKPGASVKVSCKASGYIFIRYGISWVRQAPGQGLEWMGWISANNGYTNYAQKLQGRVTMTTDTSTSTAYMELRSLRSDDTAVYYCARDGGILTGYLDYFDHWGQGTLVTVSS
VL: DIQMTQSPSSLSASVGDRLTITCRASQSIASYLNWYQQKPGKAPKLLIYAASSLQSGVPSRFSGSGSGTDFTLTISSLQPEDFATYHCQQSYSTLGITFGPGTKVDIK
notes: also called mAb 278
B3: antibody 158 (antibody, V domains shown)
VH: EVQLLESGGDLIQPGGSLRLSCAASGVTVSSNYMSWVRQAPGKGLEWVSIIYPGGSTFYADSVKGRFTISRDNSKNTLYLQMHSLRAEDTAVYYCARDLGSGDMDVWGKGTTVTVSS
VL: DIVMTQSPSFLSASVGDRVTITCRASQGISSYLAWYQQKPGKAPKLLIQAASTLQSGVPSRFSGSGSGTEFTLTISSLQPEDFATYYCQQLNSYRYTFGQGTKVEIK
notes: also called mAb 158
B4: antibody 318 (antibody, V domains shown)
VH: QVQLVQSGPEVKKPGTSVKVSCKASGFTLTSSAMQWVRQARGQRLEWIGWIVVGSGNTNYAQKFQERVTITRDMSTSTAYMELSSLRSEDTAVYYCAAGRGYNSDFDYWGQGTLVTVSS
VL: AIRMTQSPGTLSLSPGERATLSCRASQSVSSSYLAWYQQRPGQAPRLLIYGTSSRATGIPDRFSGSGSGTDFTLTISRLEPEDFAVYYCQQYGYSVYTFGQGTKVDIK
notes: also called mAb 318
B5: antibody 253H165L (antibody, V domains shown)
VH: not shown
VL: DIVMTQSPGTLSLSPGERATLSCRASQSVRSSYLAWYQQKPGQAPRLLIYGASRRGTGIPDRFSGSGSGTDFTLTISRLEPEDFAVYYCQQYGSSPWTFGQGTKVEIK
B6: antibody 165 (antibody, V domains shown)
VH: QVQLVQSGPEVKKPGTSVKVSCKASGFTFTSSAVQWVRQARGQRLEWIGWIVVGSGNTNYAQKFQESVTITRDMSTSTAYMELSSLRSEDTAVYYCAAPHCIGGSCHDAFDIWGQGTMVTVSS
VL: DIVMTQSPGTLSLSPGERATLSCRASQSVRSSYLAWYQQKPGQAPRLLIYGASRRGTGIPDRFSGSGSGTDFTLTISRLEPEDFAVYYCQQYGSSPWTFGQGTKVEIK
notes: also called mAb 165
B7: antibody 175 (antibody, V domains shown)
VH: EVQLVESGGGLIQPGGSLRLSCAASGLTVSRNYMSWVRQAPGKGLEWVSLIYSGGSTYYADSVKGRFTISRDNSKNTLYLQMNSLRAEDTAVYYCARDLRGEVWGQGTMVTVSS
VL: not shown
notes: also called mAb 175
B8: antibody 269 (antibody, V domains shown)
VH: QVQLVESGGGLIQPGGSLRLSCAASGLTVNRNYMSWIRQAPGKGLEWVSVIYSGGSTFYADSVKGRFTISRDNSKNTLSLQMNSLRAEDTAIYYCARDFYEGSFDIWGQGTMVTVSS
VL: AIQLTQSPSFLSASIGDRVTITCRASQGISSYLAWYQQKPGKAPKLLIYAASTLQSGVPSRFSGSGSGTEFTLTISSLQPEDFASYYCQQLNSYPAPVFGPGTKVDIK
notes: also called mAb 269
B9: antibody 398 (antibody, V domains shown)
VH: QVQLVESGGGLVQPGGSLRLSCAASGFTVSSNYMTWVRQAPGKGLEWVSVIYSGGSTYYADSVKGRFTISRDNSKNTLYLQMNSLRADDTAVYYCARDSTADYDFWSGYYVGAFHIWGQGTMVTVSS
VL: QTVLTQPASVSGSPGQSITISCTGTSSDVGGYNYVSWYQQHPGKAPKLMIYEVTKRPSGVPDRFSGSKSGNTASLTVSGLQAEDEADYYCSSYAGSNNWVFGGGTKLTVL
notes: also called mAb 398
B10: antibody 281 (antibody, V domains shown)
VH: QVQLVESGGGLVQPGGSLRLSCAASGFPFSIYWMSWVRQAPGKGLEWVANIKQDGSEKYYVDSVKGRFTISRDNAKNSLYLHMNSLRGEDTAVYYCASRYYDFRPEAWFDYWGQGTLVTVSS
VL: not shown
B11: Fab 75 (Fab, V domains shown)
VH: QVQLVESGGGVVQPGRSLRLSCAASGFTFNNYPLHWVRQAPGKGPEWVAVISQDGGNKYYVDSVKGRFTISRDNSKNTLYLQMNNLRAEDTALYYCARDVVVVVAARNHYYNGMDVWGQGTTVTVSS
VL: DIQLTQSPSSVSASVGDRVTITCRASQGISSWLAWYQQKPGKAPKLLIYAVSSLQSGVPSRFSGSGSGTDFTLTISSLQPEDFATYYCQQAKSFPFTFGPGTKVEIK
B12: Fab of antibody 88 (Fab, V domains shown)
VH: QLQLQESGPGLVKPSQTLSLTCTVSGGSISSGSYNWTWIRQPAGKGLEWIGRIYNSGSTNYNPSLKSRVTISVDTSKNQLSLKVRSVTAADTAVYYCARHCSGGTCYPKYYYGMDVWGQGTTVTVSS
VL: QSALTQPPSVSEAPRQRVTISCSGSSSNIGNNAVNWYQQFPGKAPKLLIYYDDLLPSGVSDRFSGSKSGTSASLAISGVQSEDEADYYCAAWDDSLNVVVFGGGTKLTVL
notes: also called 88 Fab; Fab 88
B13: Fab of antibody 158 (Fab, V domains shown)
VH: EVQLLESGGDLIQPGGSLRLSCAASGVTVSSNYMSWVRQAPGKGLEWVSIIYPGGSTFYADSVKGRFTISRDNSKNTLYLQMHSLRAEDTAVYYCARDLGSGDMDVWGKGTTVTVSS
VL: DIVMTQSPSFLSASVGDRVTITCRASQGISSYLAWYQQKPGKAPKLLIQAASTLQSGVPSRFSGSGSGTEFTLTISSLQPEDFATYYCQQLNSYRYTFGQGTKVEIK
notes: also called 158 Fab; Fab 158
B14: Fab of antibody 318 (Fab, V domains shown)
VH: QVQLVQSGPEVKKPGTSVKVSCKASGFTLTSSAMQWVRQARGQRLEWIGWIVVGSGNTNYAQKFQERVTITRDMSTSTAYMELSSLRSEDTAVYYCAAGRGYNSDFDYWGQGTLVTVSS
VL: AIRMTQSPGTLSLSPGERATLSCRASQSVSSSYLAWYQQRPGQAPRLLIYGTSSRATGIPDRFSGSGSGTDFTLTISRLEPEDFAVYYCQQYGYSVYTFGQGTKVDIK
B15: Fab of antibody 175 (Fab, V domains shown)
VH: EVQLVESGGGLIQPGGSLRLSCAASGLTVSRNYMSWVRQAPGKGLEWVSLIYSGGSTYYADSVKGRFTISRDNSKNTLYLQMNSLRAEDTAVYYCARDLRGEVWGQGTMVTVSS
VL: not shown
B16: Fab of antibody 269 (Fab, V domains shown)
VH: QVQLVESGGGLIQPGGSLRLSCAASGLTVNRNYMSWIRQAPGKGLEWVSVIYSGGSTFYADSVKGRFTISRDNSKNTLSLQMNSLRAEDTAIYYCARDFYEGSFDIWGQGTMVTVSS
VL: AIQLTQSPSFLSASIGDRVTITCRASQGISSYLAWYQQKPGKAPKLLIYAASTLQSGVPSRFSGSGSGTEFTLTISSLQPEDFASYYCQQLNSYPAPVFGPGTKVDIK
notes: also called 269 Fab; COVOX-269
B17: Fab of antibody 40 (Fab, V domains shown)
VH: QVQLVESGGGLVQPGGSLRLSCAVSGFTVSRNYMSWVRQAPGKGLEWVSLIYSGGSTFYADSVKGRFTISRDNSKNTLYLQMNSLRAEDTAVYYCARDLFHRSGYHDYWGQGTLVTVSS
VL: not shown
notes: also called 40 Fab; Fab 40
B18: Fab of antibody 58 (Fab, V domains shown)
VH: QVQLVESGGGLVQPGRSLRLSCAASGFTFDDYAMHWVRQPPGKGLEWVSGVSWNSGTIGYADSVKGRFIISRDNAKNSLYLQMNSLKAEDTALYYCAREVGGTFGVLISREGGLDYWGQGTLVTVSS
VL: SYELTQPPSVSVAPGQTARITCGGNTIGSKSVHWYQQRPGQAPVLVVYDDSDRPSGIPERFSGSNSGNTATLTISRVEAGDEADYYCQVWDSSSDRVVFGGGTKLTVL
B19: Fab of antibody 316 (Fab, V domains shown)
VH: not shown
VL: QAVLTQPPSASGSPGQSVTISCTGTSSDVGGYNYVSWYQQHPGKAPKLMIYEVSKRPSGVPDRFSGSKSGNTASLTVSGLQAEDEADYYCSSYAGSNHWVFGGGTKLTVL
notes: also called 316 Fab; Fab 316
B20: Fab of antibody 398 (Fab, V domains shown)
VH: QVQLVESGGGLVQPGGSLRLSCAASGFTVSSNYMTWVRQAPGKGLEWVSVIYSGGSTYYADSVKGRFTISRDNSKNTLYLQMNSLRADDTAVYYCARDSTADYDFWSGYYVGAFHIWGQGTMVTVSS
VL: QTVLTQPASVSGSPGQSITISCTGTSSDVGGYNYVSWYQQHPGKAPKLMIYEVTKRPSGVPDRFSGSKSGNTASLTVSGLQAEDEADYYCSSYAGSNNWVFGGGTKLTVL
B21: Fab of antibody 281 (Fab, V domains shown)
VH: QVQLVESGGGLVQPGGSLRLSCAASGFPFSIYWMSWVRQAPGKGLEWVANIKQDGSEKYYVDSVKGRFTISRDNAKNSLYLHMNSLRGEDTAVYYCASRYYDFRPEAWFDYWGQGTLVTVSS
VL: not shown
B22: Fab of antibody 222 (Fab, V domains shown)
VH: EVQLVESGGGLIQPGGSLRLSCAASGLTVSSNYMSWVRQAPGKGLEWVSVIYSGGSTFYADSVKGRFTISRDNSKNTLYLQMNSLGAEDTAVYYCARGEGSPGNWFDPWGQGTLVTVSS
VL: DVVMTQSPGTLSLSPGERATLSCRASQSVPSSYLAWYQQKPGQAPRLLIYGASTRATGIPDRFSGSGSGTDFTLTISRLEPEDFAVYYCQHYDTSPRFGGGTKVDIK
B23: Fab 75 (Fab, V domains shown)
VH: QVQLVESGGGVVQPGRSLRLSCAASGFTFNNYPLHWVRQAPGKGPEWVAVISQDGGNKYYVDSVKGRFTISRDNSKNTLYLQMNNLRAEDTALYYCARDVVVVVAARNHYYNGMDVWGQGTTVTVSS
VL: DIQLTQSPSSVSASVGDRVTITCRASQGISSWLAWYQQKPGKAPKLLIYAVSSLQSGVPSRFSGSGSGTDFTLTISSLQPEDFATYYCQQAKSFPFTFGPGTKVEIK
notes: Fab

Target: T1, SARS-CoV-2 spike receptor binding domain, native (SARS-CoV-2, UniProt P0DTC2 330-532)
T1 construct: range 330-532
Assay: BLI, RBD on AR2G biosensor, mAb as analyte

Question: For B1, which Kd is on record?
Answer: The Kd was 2.9 nM.

Question: With B2 as the binder, how does the Kd read?
Answer: The Kd was 4.16 nM.

Question: B3 was tested. Which Kd did it give?
Answer: The Kd was 1.89 nM.

Question: Which Kd does the source give for B4 here?
Answer: The Kd was 4.43 nM.

Question: B5 was tested. Which Kd did it give?
Answer: Its Kd is 3.38 nM.

Question: With B6 as the binder, how does the Kd read?
Answer: Its Kd is 2.15 nM.

Question: How did the Kd turn out when B7 was run?
Answer: The Kd was 1.36 nM.

Question: With B8 as the binder, how does the Kd read?
Answer: Its Kd is 0.76 nM.

Question: With B9 as the binder, how does the Kd read?
Answer: Its Kd is 4.63 nM.

Question: Which Kd does the source give for B10 here?
Answer: The Kd was 0.97 nM.

Target: T2, SARS-CoV-2 spike receptor binding domain (RBD), His-tagged (SARS-CoV-2 (Wuhan-Hu-1 strain), UniProt P0DTC2 330-532)
T2 construct: range 330-532
Assay: X-ray crystal structure of the ternary complex RBD/Fab 253/Fab 75

Question: Does B11 bind?
Answer: Result: binds

Target: T3, SARS-CoV-2 receptor binding domain, native (501N) (SARS-CoV-2, UniProt P0DTC2 330-532)
T3 construct: range 330-532
Assay: BLI, RBD immobilised on AR2G biosensor, 1:1 fit

Question: How did the Kd turn out when B12 was run?
Answer: Its Kd is 0.64 nM.

Question: For B13, which Kd is on record?
Answer: Its Kd is 0.53 nM.

Question: Which Kd does the source give for B14 here?
Answer: The Kd was 2.23 nM.

Question: B15 was tested. Which Kd did it give?
Answer: The Kd was 0.97 nM.

Question: How did the Kd turn out when B16 was run?
Answer: The Kd was 1.59 nM.

Question: With B17 as the binder, how does the Kd read?
Answer: The Kd was 0.55 nM.

Question: B18 was tested. Which Kd did it give?
Answer: The Kd was 0.3 nM.

Question: For B19, which Kd is on record?
Answer: Its Kd is 1.5 nM.

Question: How did the Kd turn out when B20 was run?
Answer: The Kd was 1.02 nM.

Question: Which Kd does the source give for B21 here?
Answer: Its Kd is 3.2 nM.

Question: For B22, which Kd is on record?
Answer: Its Kd is 0.29 nM.

Target: T4, SARS-CoV-2 receptor binding domain (RBD), native (SARS-CoV-2, UniProt P0DTC2 330-532)
T4 construct: range 330-532
Assay: crystal structure

Question: Does B23 bind?
Answer: Result: binds
